Test results reported in patent US20250092146A1, “ANTI-CCR8 ANTIBODIES, CONJUGATES, AND USES THEREOF” (Abilita Bio, Inc., priority 2023, published 2025).

Columns and labels:
[1] = target: T1, hCCR8 (Homo sapiens, UniProt P51685); test: Flow cytometry binding of purified VHHs to HEK293 cells expressing hCCR8; conditions: monovalent VHH, FIG. 1
T1 construct: expressed in transfected cells
Protocol: Recombinant cells expressing hCCR8 were resuspended to a final concentration of 1.0×10^6 cells/ml in FACS buffer. Surface expression of hCCR8 on transiently transfected HEK293 cells was confirmed by flow cytometry of HEK293 cells stained with PE anti-hCCR8 (Clone 433H, BD Biosciences, #566897) antibody. Dilutions of purified VHHs were incubated with cells for 60 min. Individual samples were distributed into 96-well v-bottom plates and incubated for one hour at 4° C. Bound VHH were then detected with an anti-VHH specific antibody (Goat anti-alpaca VHH, Jackson ImmunoResearch, #128-605-232). […] Binding was determined in parallel on HEK293 cells stably expressing the closely related receptor hCCR7 (SEQ ID NO: 41), as control for binding specificity.

[2] = target: T1, hCCR8; test: Flow cytometry binding of VHH-Fc fusion antibodies to hCCR8 on stably transfected HEK293 cells; conditions: Table 11
Protocol: VHH-Fc fusion antibodies were evaluated for their ability to bind to hCCR8 on stably transfected HEK293 cells by means of flow cytometry. Cells were incubated with different concentrations of the bivalent VHH-Fc fusions for 60 minutes at 4° C., followed by two washes with FACS buffer, followed by 30 minutes incubation at 4° C. with the Zenon R-Phycoerythrin Anti-human IgG (ThermoFisher Scientific, #Z-25455), and two additional washing steps. Data were plotted and fit using GraphPad Prism software. EC50 and Bmax values individual antibodies were calculated from the resulting dose-response curves. Bivalent VHH-Fc fusions (Seq ID NOs: 31, 33, and 87-103) of 19 different VHH domains (SEQ ID NOs: 27, 28, and 70-86) were tested for cell binding and results are shown in Table 7. […]
VHH-Fc fusion DNA constructs were then generated comprising encoding humanized VHH sequences (SEQ ID NOs: 106-111) fused in frame to the human IgG1 (SEQ ID NO: 34) directly to the short hinge sequence in the pFuse expression vector, and were expressed, purified and analyzed for binding to HEK293 cells expressing human CCR8 as in Example 5. Binding curves for VHH-Fc antibodies comprised of parental VHH-1 and the humanized VHH derivatives VHH-1.2-Fc and VHH-1.3-Fc are shown in FIG. 9A. Binding curves for VHH-Fc antibodies comprised of parental VHH-2 and the humanized VHH derivatives VHH-2-Fc, VHH-2.2-Fc and VHH-2.3-Fc, are shown in FIG. 9B. Cell binding EC50 values, normalized Bmax (relative to respective parental clone) data and humanizing mutations are shown in Table 10 below.
Approaches such as in vitro affinity maturation and rational mutagenesis can be performed to regain binding affinity and/or stability lost through humanization. In vitro affinity maturation generally involves building and amino acid substitution library where amino acid positions are varied across the CDRs and/or framework at a defined set of positions using sets of amino acids chosen to introduce new chemical diversity. The paratope residues within the CDR regions are of course key to antigen binding and care must be taken not to disrupt important structures while attempting to evolve improve antibody behavior. One approach to identify positions that are important to the maintenance of binding properties is to perform paratope mapping using single scanning alanine substitutions across antibody CDR regions. In this approach, residues that are critical to the maintenance of antibody binding to the antigen can be identified and at the same time permissive sites can be identified where it may be possible to make substitutions of other amino acids desirable for subsequent affinity maturation library construction. Site directed mutagenesis was used to make single alanine substitutions at each residue in the CDRs of VHH-1 (SEQ ID NO: 27) and VHH-2 (SEQ ID NO: 28). Changes in VHH-1 CDR amino acids to alanine are indicated in Table 11 (SEQ ID NOs: 112-137) and for VHH-2 CDRs (SEQ ID NO: 138-162) in Table 12. Mutation positions and residue changes to alanine with respect to the in the parental VHH sequences are referenced by their IMGT position. VHH domains containing the indicated modified CDR-1, CDR-2 or CDR-3 domains were used to construct Fc fusions by direct grafting to the short hinge of the human Fc domain (SEQ ID NO: 34). VHH-Fc constructs were expressed, purified and analyzed for binding to HEK293 cells expressing hCCR8 and the results are reported in Table 11 and Table 12. EC50 values are reported for each Fc fusion antibody containing a modified CDR, along with its respective Bmax value normalized to the to the matched wild type VHH-1-Fc or VHH-2-Fc fusion antibody.

[3] = target: T2, HuT-78 cells that naturally express human CCR8 (Homo sapiens, UniProt P51685); test: Flow cytometry binding of yeast-display optimized VHH-Fc antibodies to HuT-78 cells; conditions: Table 13
T2 construct: HuT-78 cells that naturally express human CCR8 were used as target cells; endogenous in cells; host or cells: HuT-78
Description: Top VHH sequences were chosen from the FACS sorted populations based on an analysis of improved binding performance relative to the parental sequences and evidence of sequence enrichment by NGS. Candidate VHH were then cloned as VHH-Fc fusions to the short hinge of the IgG1 Fc domain (SEQ ID NO: 34), expressed in HEK293 cells as described earlier and purified for binding evaluation. Bmax values are shown as normalized to VHH-1 or VHH-2 depending on the clone family. […] Mutations are referenced by position according to the IMGT definition.

[4] = test system: MC38 mouse colon cancer cells; test: MC38 tumor growth inhibition study in human CCR8 transgenic mice; assay type: in vivo; conditions: 30 mg/kg IV 3 times per week, Day 16, p=0.0169
Protocol: Human CCR8 transgenic (hCCR8-tg) mice (#110096, Biocytogen, China) were inoculated with MC38 mouse colon cancer cells subcutaneously. After the average tumor size reached approximately 150 mm3, mice were randomized based on tumor size and treatment was initiated. Mice were treated IV 3 times per week with 30 mg/kg VHH-1-mFc (SEQ ID NO: 239) or an IgG2a Fc control (recombinant IgG2a Fc, #BE0097, BioXcell). Tumor volume was measured twice per week using a caliper, and the volume expressed in mm3 using the formula: V (mm3)=(a×b2)/2 where a and b were the long and short diameters of the tumor, respectively. The tumor size was then used for calculations of tumor growth inhibition (T/C) values (where T was the treatment group and C is the control group). The T/C value (in percent) is an indication of antitumor effectiveness; T and C were the mean volume of the treated and control groups, respectively, on a given day. […] To determine whether group treated with various test articles had statistically significant anti-tumor effects compared to the mouse IgG2a Fc control, the MC38 tumor volumes were analyzed by one-way ANOVA and multiple comparison test at day 16. […] In addition, the tumor growth inhibition (TGI) was also calculated during the study until Day 16. On Day 16, the TGIs for VHH-1-mFc were 50.3%, (p=0.0169).

T1 sequence (P51685 whole entry): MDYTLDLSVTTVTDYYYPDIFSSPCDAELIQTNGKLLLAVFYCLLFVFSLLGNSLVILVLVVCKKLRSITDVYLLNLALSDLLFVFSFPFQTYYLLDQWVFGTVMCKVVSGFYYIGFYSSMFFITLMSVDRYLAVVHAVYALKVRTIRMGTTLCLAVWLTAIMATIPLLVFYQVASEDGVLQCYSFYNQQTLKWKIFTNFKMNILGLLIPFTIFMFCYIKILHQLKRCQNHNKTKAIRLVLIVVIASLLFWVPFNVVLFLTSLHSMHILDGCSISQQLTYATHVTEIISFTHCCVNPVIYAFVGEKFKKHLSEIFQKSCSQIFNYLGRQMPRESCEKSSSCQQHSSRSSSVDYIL
T2 sequence (P51685 whole entry): as above

Row | EC50 ([2]; VHH-1 CDR alanine mutants as human Fc fusions, HEK293 hCCR8) [nM] | % Bmax ([2]; normalized to wild type VHH-1-Fc) [%] | EC50 ([3]; clones tested as VHH-Fc fusions (human IgG1 Fc), HuT-78 cells) [nM] | Normalized Bmax (%) ([3]; normalized to VHH-1 or VHH-2 depending on clone family) | Molecule | binding specificity hCCR8 vs human CCR7 [1] | fold smaller tumor volume than isotype control [4] [fold] | tumor growth inhibition (TGI) [4] [%]
1 | 1.73 | 100 | 2.56 | 100.0 | VHH-1: llama anti-hCCR8 VHH, SEQ ID NO: 27; in Tables 11 and 13 tested as human IgG1 Fc fusion (protein, left off: small tags and cut ends) VHH: QVQLQESGGGLVQAGGSLRLSCVASGSTSSIRRIGWYRQAPGKQRELVARFSSGGGTNYADFVKGRFTISGDNAKNTMYLQMNSLKPEDTAVYYCSARRLLGTSRVDYWGQGTQVTVSSHHHHHH | specific binding to hCCR8 overexpressed in HEK293 cells and not to human CCR7 | – | –
2 | – | – | – | – | VHH-1-mFc: VHH-1 fused to hinge of mouse IgG2a Fc, SEQ ID NO: 239 (protein) QVQLQESGGGLVQAGGSLRLSCVASGSTSSIRRIGWYRQAPGKQRELVARFSSGGGTNYADFVKGRFTISGDNAKNTMYLQMNSLKPEDTAVYYCSARRLLGTSRVDYWGQGTQVTVSSEPRGPTIKPCPPCKCPAPNLLGGPSVFIFPPKIKDVLMISLSPIVTCVVVDVSEDDPDVQISWFVNNVEVHTAQTQTHREDYNSTLRVVSALPIQHQDWMSGKEFKCKVNNKDLPAPIERTISKPKGSVRAPQVYVLPPPEEEMTKKQVTLTCMVTDFMPEDIYVEWTNNGKTELNYKNTEPVLDSDGSYFMYSKLRVEKKNWVERNSYSCSVVHEGLHNHHTTKSFSRTPGK | – | 1.8 | 50.3
3 | – | – | – | – | VHH-3: llama anti-hCCR8 VHH, SEQ ID NO: 29 (protein) VHH: QVQLQESGGGLVQAGGSLRLSCVASGSTSSIRRIGWYRQAPGKQRELVARFSSGGGTNYADFVKGRFTISGDNAKNTMYLQMNSLKPEDTAVYYCGARRLLGTSRVDYWGQGTQVTVSS | specific binding to hCCR8 overexpressed in HEK293 cells and not to human CCR7 | – | –
